Experiment [1] deals with HpDML1, C-terminal DML-1 like domain of HpDprA (residues 213-266) (Helicobacter pylori strain J99) (UniProt B5ZAA1). As to the kind of experiment: cross-linking; glutaraldehyde on ice, SDS-12% PAGE, silver staining; HpDML1 at 140 µM, longer incubation with the cross-linker.
Experiment [2] shares this target. As to the kind of experiment: SPR; BIAcore 3000; the same protein amine-coupled on a CM5 chip (~1000 RU) and injected; 25 °C, 10 mM HEPES pH 7.4, 150 mM NaCl, 1 mM EDTA, 0.05% P-20, 20 µl/min; kon from 1:1 Langmuir fit, koff from the main phase of a biphasic dissociation, Kd = koff/kon. On the technique in general: SPR reads the build-up and loss of mass on a sensor chip optically.

The target is the same in experiment [3]. Briefly: SEC; Superdex 75 HR 10/300, 1X PBS, 0.3 ml/min, 500 µl injected, protein at 8 mg/ml, apparent mass from standards. (Size exclusion chromatography separates by hydrodynamic size, large species first.)
Experiment [4] addresses HpRF, N-terminal Rossmann fold domain of HpDprA (residues 1-212) (Helicobacter pylori strain J99) (UniProt B5ZAA1). As to the kind of experiment: cross-linking; glutaraldehyde on ice, SDS-10% PAGE, silver staining; HpDprA 5 µM with 0.01% to 0.5% glutaraldehyde at 4 °C for 15 min; conditions for HpRF in the legend of Fig B in S1 File.
For experiment [5] the target is unchanged. Briefly: SEC; Superdex 75 HR 10/300, 1X PBS, 0.3 ml/min, 500 µl injected, protein at 2 mg/ml, apparent mass from standards.
Experiment [6] shares this target. Briefly: SPR; BIAcore 3000; the same protein amine-coupled on a CM5 chip (~1000 RU) and injected; 25 °C, 10 mM HEPES pH 7.4, 150 mM NaCl, 1 mM EDTA, 0.05% P-20, 20 µl/min; kon from 1:1 Langmuir fit, koff from the main phase of a biphasic dissociation, Kd = koff/kon.
Experiment [7] has as its target Helicobacter pylori DNA processing protein A (HpDprA), full length, strain J99 (Helicobacter pylori strain J99) (UniProt B5ZAA1). Briefly: cross-linking; glutaraldehyde on ice, SDS-10% PAGE, silver staining; HpDprA 5 µM with 0.01% to 0.5% glutaraldehyde at 4 °C for 15 min; conditions for HpRF in the legend of Fig B in S1 File.
The target is the same in experiment [8]. As to the kind of experiment: SEC; Superdex 75 HR 10/300, 1X PBS, 0.3 ml/min, 500 µl injected, protein at 2 mg/ml, apparent mass from standards.
For experiment [9] the target is unchanged. Briefly: SPR; BIAcore 3000; the same protein amine-coupled on a CM5 chip (~1000 RU) and injected; 25 °C, 10 mM HEPES pH 7.4, 150 mM NaCl, 1 mM EDTA, 0.05% P-20, 20 µl/min; kon from 1:1 Langmuir fit, koff from the main phase of a biphasic dissociation, Kd = koff/kon.

As a reminder, the stoichiometry N is the number of molecules, sites or subunits per partner or assembly. One may read the Kd as the constant that tells how readily two partners part at equilibrium. High values mean lower affinity, low ones higher affinity.

“And” between values parts separate entries of the source, which are not always exact repeats. Equal entries are not always repeated.

Turning to “HpDML1, C-terminal DML-1 like domain of HpDprA (residues 213-266) (from UniProt B5ZAA1 213-266) (domain or fragment)”, the stoichiometry N in experiment [1] and in [3] was 2 in each case. Moreover, the dissociation constant (Kd) in experiment [2] came to 2350 nM.

Consider “HpRF, N-terminal Rossmann fold domain of HpDprA (residues 1-212) (from UniProt B5ZAA1 1-212) (domain or fragment)”, for which the stoichiometry N in experiment [4] and in experiment [5] was 2 in each case. For the same substance, the equilibrium dissociation constant (Kd) in [6] was found to be 22.8 nM.

As to “Helicobacter pylori DNA processing protein A (HpDprA), full length, strain J99 (from UniProt B5ZAA1 1-266) (natural protein)”, the stoichiometry N in [7] is 2 and 3; in [8], 2. Also, the Kd in experiment [9] was 22.3 nM.

(Values after PMC4489622.)
